# In patent US20160068860A1, “TRANSGENIC PLANTS” (CONSEJO SUPERIOR DE INVESTIGACIONES CIENTIFICAS (CSIC), priority 2013, published 2016):
# Numbering of substitutions follows the chain as printed. Names and notes keep the numbering of the source.
# B1: PYL4H82R V97A (AtPYL H82 and V97A) (receptor)
# chain: MLAVHRPSSAVSDGDSVQIPMMIASFQKRFPSLSRDSTAARFHTHEVGPNQCCSAVIQEISAPISTVWSVVRRFDNPQAYKRFLKSCSVIGGDGDNAGSLRQVHVVSGLPAASSTERLDILDDERHVISFSVVGGDHRLSNYRSVTTLHPSPISGTVVVESYVVDVPPGNTKEETCDFVDVIVRCNLQSLAKIAENTAAESKKKMSL
# notes: also called PYL4H82R (found combined with V97A)
# B2: PYL4A194T: AtPYL4 ABA receptor mutant polypeptide with A194T substitution (SEQ ID NO. 60; nucleic acid SEQ ID NO: 55); also over-expressed in plants (protein, listed as Arabidopsis thaliana)
# chain: B1 chain with R82H, A97V, A194T
# Columns and labels:
# [1] = test system: Arabidopsis thaliana plants; experiment: Whole-rosette stomatal conductance and transpiration measurements; type: in vivo; conditions: basal conditions; for stomatal conductance (Gst) and transpiration versus non-transformed Col: OE plants
# Protocol: The Arabidopsis whole-rosette gas exchange measurement device, plant growth practice and custom written program to calculate transpiration and Gst for water vapour have been described previously (Kollist et al. 2007; Vahisalu et al., 2008). For gas-exchange experiments, 25-28-d-old plants (rosette area 6-18 cm2) were used. Until measurements, plants were grown in growth chambers (AR-66LX and AR-22L, Percival Scientific, IA, USA) at 12/12 photoperiod, 23/18° C. temperature, air relative humidity of 70-80% and 150 μmol m-2 s-1 light. During gas exchange measurements, temperature, air relatively humidity, photoperiod and light in the cuvettes were kept as similar as possible to the
# values in growth chambers. Photographs of plants were taken before and after the experiment and rosette leaf area was calculated using the NIH software ImageJ 1.37v. Leaf area values for the intermediary experimental period were calculated using linear regression between starting and final leaf area.
# [2] = test system: Arabidopsis thaliana plants; experiment: Root growth assay of OE lines on ABA; type: in vivo; conditions: 10 μM ABA, 10 d after transfer
# Protocol: Seedlings were grown on vertically oriented MS plates for 4 to 5 days. Afterwards, 20 plants were transferred to new MS plates lacking or supplemented with the indicated concentrations of ABA. The plates were scanned on a flatbed scanner after 10-d to produce image files suitable for quantitative analysis of root growth using the NIH software ImageJ v1.37. As an indicator of shoot growth, the maximum rosette radius was measured.
# [3] = test system: PP2CA; experiment: In vitro phosphatase activity assay with pNPP substrate, PP2CA; type: biochemical, Arabidopsis; conditions: absence of ABA
# Protocol: (§1) Phosphatase activity was measured using as a substrate either pNPP or phosphorylated ΔC-ABF2, ΔC-ABI5 and SLAC11-186 proteins. For the pNPP substrate, assays were performed in a 100 μl solution containing 25 mM Tris-HCl pH 7.5, 2 mM MnCl2 and 5 mM pNPP. Assays contained 2 μM phosphatase (PP2CA or HAB1), 4 μM receptor and the indicated concentrations of ABA. Phosphatase activity was recorded with a ViktorX5 reader at 405 nm every 60 seconds over 30 minutes and the activity obtained after 30 minutes is indicated in the graphics. In order to obtain phosphorylated ΔCABF2, ΔC-ABI5 and SLAC11-186 proteins, OST1 phosphorylation assays were done basically as described previously (Dupeux et al., 2011 b). ΔC-ABF2 and SLAC11-186 N-terminal fragments were prepared as described (Antoni et al., 2012; Vahisalu et al., 2010). ΔC-ABI5 recombinant protein (amino acid residues 1-200, containing the C1, C2 and C3 target sites of ABA-activated SnRK2s) was expressed in the pETM11 vector as described above. The reaction mixture containing the OST1 kinase and either ΔCABF2, ΔC-ABI5 or SLAC11-186 recombinant proteins were incubated for 50 min at room temperature in 30 μl of kinase buffer: 20 mM Tris-HCl pH 7.8, 20 mM MgCl2, 2 mM MnCl2, and 3.5 μCi of γ-32ATP (3000 Ci/mmol). Thus, OST1 was autophosphorylated and in turn it phosphorylated ΔC-ABF2, ΔC-ABI5 and SLAC11-186 proteins. Next, they were used as substrates of PP2CA that was preincubated (or not) for 10 with PYL4 or PYL4A194T (1:10 phosphatase:receptor ratio) either in the absence or presence of 30 μM ABA. The reaction was stopped by adding Laemmli buffer and the proteins were separated by SDS-PAGE using an 8% acrylamide gel and transferred to an Immobilon-P membrane (Millipore). Radioactivity was detected and quantified using a Phosphorimage system (FLA5100, Fujifilm). After scanning, the same membrane was used for Ponceau staining. The data presented are averages of at least three independent experiments.
# [4] = test system: RAB18; experiment: Quantitative RT-PCR of ABA-responsive gene RAB18 in OE plants; type: in vivo, Arabidopsis thaliana
# Protocol: (§2) ABA treatment, RNA extraction and quantitative RT-PCR amplifications were performed as previously described (Saez et al., 2004).
# [5] = target: T1, PP2CA (Arabidopsis thaliana, UniProt O80920+P49598, A194T); experiment: In vitro reconstitution: PP2CA-mediated dephosphorylation of OST1, ΔC-ABF2, ΔC-ABI5, SLAC1 1-186; type: biochemical; design: made in house; host or cells: E. coli BL21 (DE3)
# Protocol: as §1, with “Next, they were used as substrates of PP2CA that was preincubated (or not) for 10 with PYL4 or PYL4A194T (1:10 phosphatase:receptor ratio) either in the absence or presence of 30 μM ABA.” left out
# Target sequence in this assay (O80920 whole entry A194T): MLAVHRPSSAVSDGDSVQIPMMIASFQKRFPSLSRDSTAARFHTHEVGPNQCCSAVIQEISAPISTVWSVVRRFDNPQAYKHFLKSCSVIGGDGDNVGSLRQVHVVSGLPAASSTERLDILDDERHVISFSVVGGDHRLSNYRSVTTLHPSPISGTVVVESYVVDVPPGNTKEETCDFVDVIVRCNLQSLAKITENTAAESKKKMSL
# Target sequence in this assay (P49598 whole entry): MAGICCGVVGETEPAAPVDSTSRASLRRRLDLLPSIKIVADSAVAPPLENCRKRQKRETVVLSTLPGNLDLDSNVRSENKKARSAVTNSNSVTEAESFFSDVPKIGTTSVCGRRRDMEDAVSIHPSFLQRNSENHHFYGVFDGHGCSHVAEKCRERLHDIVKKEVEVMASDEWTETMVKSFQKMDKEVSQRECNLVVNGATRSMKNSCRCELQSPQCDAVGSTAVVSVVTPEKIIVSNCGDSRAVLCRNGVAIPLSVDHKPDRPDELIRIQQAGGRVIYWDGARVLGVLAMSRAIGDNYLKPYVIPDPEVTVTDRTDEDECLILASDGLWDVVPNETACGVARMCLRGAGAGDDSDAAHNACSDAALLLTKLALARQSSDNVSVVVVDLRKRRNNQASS
# [6] = test system: RD29B; experiment: Quantitative RT-PCR of ABA-responsive gene RD29B in OE plants; type: in vivo, Arabidopsis thaliana
# Protocol: as §2
# [7] = target: T1, PP2CA; experiment: In vitro phosphatase activity assay with pNPP substrate, PP2CA; type: biochemical; design: made in house; host or cells: E. coli BL21 (DE3); conditions: for inhibitory effect on the activity of PP2CA with respect to PYL4: absence of ABA, 2 μM phosphatase, 4 μM receptor
# Protocol: as §1
# Target sequence in this assay (P49598 whole entry): as above
# Target sequence in this assay (O80920 whole entry A194T): as the sequence (O80920 whole entry A194T) above
# [8] = absence of exogenous ABA treatment
# [9] = 30 μM ABA, 1:10 phosphatase:receptor
Molecule,stomatal conductance (Gst) and transpiration versus non-transformed Col [1],ABA-mediated inhibition of root growth [2],effect on PP2CA activity [3],induction of RAB18 after ABA-treatment ([4]; 10 μM ABA for 3 h),"expression of RAB18 up-regulated compared to non-transformed plants [4, 8]","inhibition of dephosphorylation by PP2CA of ΔC-ABI5 and SLAC1 1-186 [5, 9]","inhibition of dephosphorylation of ΔC-ABF2 [5, 9]","inhibition of dephosphorylation of ΔC-ABF2, ΔC-ABI5 and SLAC1 1-186, better than PYL4 ([5]; 0.5-1 μM ABA, 1:1 phosphatase:receptor ratio)","inhibition of dephosphorylation of PP2CA targets, difference to PYL4 ([5]; absence of ABA, 1:10 phosphatase:receptor)","protection of OST1 phosphorylation compared to PYL4 ([5]; low ABA concentrations, 1:1 phosphatase:receptor ratio)",stomatal conductance (Gst) versus PYL4 OE plants [1],induction of RD29B after ABA-treatment ([6]; 10 μM ABA for 3 h),"expression of RD29B up-regulated compared to non-transformed plants [6, 8]",inhibitory effect on the activity of PP2CA with respect to PYL4 [7],inhibitory effect on the activity of PP2CA with respect to PYL4 ([7]; listed as PYL4^A194T),inhibition of PP2CA ([7]; presence of 1 μM ABA)
"PYL4: AtPYL4 wild type ABA receptor polypeptide (SEQ ID NO:3, At2g38310) [reference compound]",lower Gst and transpiration values than non-transformed Col plants,enhanced ABA-mediated inhibition of root growth compared to non-transformed plants,,,,,,,,,,,,,,
B1,,,did not affect PP2CA activity,,,,,,,,,,,,,
B2,lower Gst and transpiration values than non-transformed Col plants,enhanced ABA-mediated inhibition of root growth compared to non-transformed plants,,not higher than in non-transformed plants,6 fold,inhibited better than PYL4,not more effective than PYL4,2-3 fold,did not find significant differences,improved,lower Gst values than PYL4 OE plants,not higher than in non-transformed plants,23 fold,around 20%,20%,higher inhibition of PP2CA than PYL4
